Source: US20230340142A1 (SUZHOU NEOLOGICS BIOSCIENCE, published 2023)
Numbering of substitutions follows the chain as printed. Values belong to the binder of their own block, whether it stands above or below them.

Assays:
human PD-L1 [1] = molecular target: T1, human PD-L1 (human, UniProt Q9NZQ7 19-238, limits assumed); assay: flow cytometry on MDA-MB-231 cells (PD-L1 on the cell surface), PE-labelled secondary antibody, MFI
T1 construct: also called hPD-L1
Procedure: (§1) Glycosylation differences in cancer cell lines of different tissue origin may affect the binding affinity between PD-L1 antibody and PD-L1. In this study, five cell lines were selected, namely BT20(Breast), mb-231 (Breast), A375(Melanoma), HCC827(Lung), and RKO(Colon). Cells were re-suspended with FACS buffer (1%BSA in PBS), and 50 µl cell suspension per well was added to the 96-well U-bottom plate (Corning, catalog#3795). The purified antibody to be tested was diluted in gradient, then 50 µl was added to each well and incubated at 4° C. for 1 hour. After washing by FACS buffer for three times, the cells were incubated with PE-labeled fluorescent secondary antibody and incubated at 4° C. for half an hour. Cells were washed three times with FACS buffer and resuspended to 200 uL/ well. The fluorescence signal was detected using Canto II flow cytometry (BD).

human PD-L1 [2] = molecular target: T1, human PD-L1; assay: flow cytometry on RKO cells (PD-L1 on the cell surface), PE-labelled secondary antibody, MFI
Procedure: as §1

[3] = molecular target: T2, human PD-L1 recombinant protein, PD-L1-his (human, UniProt Q9NZQ7 19-238); assay: Gator BLI; antibody on HFC sensor, PD-L1-his in solution; 1:1 fit
T2 construct: also called PD-L1 with a his-tag; not shown: his-tag
T2 sequence (Q9NZQ7 19-238 limits assumed): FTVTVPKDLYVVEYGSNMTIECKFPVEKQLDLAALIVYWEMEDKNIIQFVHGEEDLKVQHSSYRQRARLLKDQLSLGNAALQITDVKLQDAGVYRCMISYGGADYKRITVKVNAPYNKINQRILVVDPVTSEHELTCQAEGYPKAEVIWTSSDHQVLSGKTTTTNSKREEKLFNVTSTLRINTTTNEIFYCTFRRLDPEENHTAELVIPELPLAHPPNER
Procedure: PD-L1 antibodies were coupled to the surface of the HFC sensor (Probe Life), and human PD-L1 recombinant protein as the mobile phase was 2 times gradient diluted. The association and dissociation between PD-L1 protein and the antibodies on the surface of the sensor were measured. Specifically, the HFC sensor was prewetted in SD buffer (PBS containing 0.02% Tween-20 and 0.2% BSA) for 5-10 minutes, and then incubated in SD buffer containing antibodies for 1-3 minutes, allowing antibodies to be coupled to the sensor surface. The antibody-coupled HFC sensor was incubated in the SD buffer solution for 1 minute, and then incubated in the buffer solution containing different concentrations of PD-L1-his for 1-5 minutes to measure the association of PD-L1 protein to captured antibody. Finally, the sensor combining the antigen and antibody was incubated in SD buffer for 2-10 minutes to measure PD-L1 protein’s dissociation from sensor. The measured data were fitted using a 1:1 model, and the association rate (Kon) and the dissociation rate (Koff) were calculated. The equilibrium dissociation constant (kD) was calculated by the ratio Koff/Kon.

human PD-L1 [4] = molecular target: T1, human PD-L1; assay: flow cytometry on HCC827 cells (PD-L1 on the cell surface), PE-labelled secondary antibody, MFI
Procedure: as §1

human PD-L1 [5] = molecular target: T1, human PD-L1; assay: flow cytometry on BT20 cells (PD-L1 on the cell surface), PE-labelled secondary antibody, MFI
Procedure: as §1

T1 sequence (Q9NZQ7 19-238 limits assumed): as above

B1: Clone C (antibody, V domains shown)
VH: EVQLQQSGADLVKPGASVKLSCTASGFNIKDTYMHWVKQRPEQGLEWIGRIDPANGNTKYDPKFQGKATITTDTSSNTAYLQLSSLTSEDTAVYYCARGLGRWFAYWGQGTLVTVSA
VL: DIVMTQSHKFMSTSVGDRVSITCKASQDVSNAVAWYQQKPGQSPELLIYSASNRYTGVPDRFTGSGSGTDFTFTISSVQAEDLAVYYCQQHDSTPLTFGAGTKLELK
notes: Mouse hybridoma clone
- EC50 (read off the curve) (human PD-L1 [1]): ~0.03 µg/mL
- EC50 (read off the curve) (human PD-L1 [2]): ~0.02 µg/mL
- Kd [3]: 4.32 nM
- koff [3]: 0.00101 s⁻¹
- kon [3]: 234000 M⁻¹ s⁻¹
- EC50 (read off the curve) (human PD-L1 [4]): ~0.03 µg/mL
- EC50 (read off the curve) (human PD-L1 [5]): ~0.02 µg/mL

B3: Clone D (antibody, V domains shown)
VH: EVQLQQSGPELVKPGASMKISCKASGYSFTGYTMNWVKQSHGKNLEWIGLIIPYNGGISYNQKFKDKATLTVDKSSSTAYMELLSLTSEDSAVYYCASLITTAPRDSMDYWGQGTSVTVSS
VL: DIQMTQTTSSLSASLGDRVTISCRASQDISNYLNWYQQKPDGSVKLLIYYTSKLHSGVPSRFSGSGSGTDYSLTISNLEQEDIATYFCQQGDALPWTFGGGTKLEIK
notes: Mouse hybridoma clone
- EC50 (read off the curve) (human PD-L1 [1]): ~0.03 µg/mL
- EC50 (read off the curve) (human PD-L1 [2]): ~0.02 µg/mL
- Kd [3]: 3.68 nM
- koff [3]: 0.000826 s⁻¹
- kon [3]: 225000 M⁻¹ s⁻¹
- EC50 (read off the curve) (human PD-L1 [4]): ~0.02 µg/mL
- EC50 (read off the curve) (human PD-L1 [5]): ~0.01 µg/mL

The remaining binders from weak to strong by Kd [3], led by results:

- EC50 (read off the curve) (human PD-L1 [1]): ~0.06 µg/mL
- EC50 (read off the curve) (human PD-L1 [2]): ~0.04 µg/mL
- Kd [3]: 5.94 nM
- koff [3]: 0.0006 s⁻¹
- kon [3]: 101000 M⁻¹ s⁻¹
- EC50 (read off the curve) (human PD-L1 [4]): ~0.05 µg/mL
B2: Clone B (antibody, V domains shown)
VH: QGQMQQSGAELVKPGASVKLSCKTSGFTFSSSYISWLKQKPGQSLEWIAWIYAGTGGTSYNQKFTGKAQLTVDTPSSTAYMQFSSLTTEDSAIYYCARHEGKYWYFDVWGAGTTVTVSS
VL: QILLTQSPAIMSASPGEKVTMTCSASSSVSYVHWYQQKPGSSPKPWIYDTSNLASGFPARFSGSGSGTSYSLIISSMEAEDAATYYCHQRSSYPWTFGGGTKLEIK
notes: Mouse hybridoma clone

- EC50 (read off the curve) (human PD-L1 [1]): ~0.03 µg/mL
- EC50 (read off the curve) (human PD-L1 [2]): ~0.03 µg/mL
- Kd [3]: 3.52 nM
- koff [3]: 0.000582 s⁻¹
- kon [3]: 165000 M⁻¹ s⁻¹
- EC50 (read off the curve) (human PD-L1 [4]): ~0.02 µg/mL
- EC50 (read off the curve) (human PD-L1 [5]): ~0.007 µg/mL
B4: Clone N (antibody, V domains shown)
VH: B3 VH with Y54H, I58T, S77R, I100M
VL: B3 VL with S43T, K53R, E79D, D92A, A93T
notes: Mouse hybridoma clone
